System: Hartley guinea pigs
Test: Systemic active allergic reaction test in guinea pigs
Type: in vivo, guinea pig
Details: 40 mg/mL
Description: Systemic active allergic reaction test in guinea pigs: Hartley guinea pigs, SPF grade, source: Beijing Vital River Laboratory Animal Technology Co., Ltd., animal production license No.: SCXK (JING) 2016-0011, test animal certification No.: No. 110011201110221326, issuer: Beijing Science and Technology Commission, age at the start of administration: 5-6 weeks.
Guinea pigs were sensitized by intraperitoneal injection of the sample of Example 2 and Addaven every other day for three consecutive days. In the allergic reaction test, 0.9% sodium chloride injection (Lot No.: 6B20060706, Shandong Qidu Pharmaceutical Co., Ltd.) was selected as the compatibility solution. Test sample low-dose group was administered with the clinically intended concentration of the test sample solution, and test sample high-dose group was administered with twice the concentration of the test sample solution. The administration volume was 0.5 mL/animal for each group. On the 14th and 21st days after the last sensitization, twice the sensitization dose of the product was intravenously injected for irritation, respectively.
Negative control group: 0.9% sodium chloride injection; […]

bovine serum albumin
allergic reactions (irritation on the 14th day after the last sensitization): strongly positive to extremely strong positive
allergic reactions (irritation on the 21st day after the last sensitization): strongly positive to extremely strong positive

Source: patent US20260216058A1, “TRACE ELEMENT COMPOSITION, PREPARATION METHOD THEREFOR, AND USE THEREOF” (BEIJING ZANGWEIXINKANG PHARMACEUTICAL R&D CO., LTD., priority 2023, published 2026)
